Data from patent US20160287687A1 (IMMATICS BIOTECHNOLOGIES, published 2016).

B1: ALIVSLPYL (SEQ ID NO: 1) (peptide)
peptide: ALIVSLPYL
notes: source gene SLC17A3; also called SLC17A3-001

Target: T1, HLA-A*02:01 (human)
T1 construct: MHC monomers first loaded with a UV-sensitive peptide (not identified) that is cleaved by UV light and exchanged for the test peptide; captured on streptavidin plates, detected with anti-β2m; also called peptide-receptive MHC molecules; MHC class I
Experiment: UV-ligand exchange + anti-b2m ELISA; peptide exchange yield grade (+ >=10%, ++ >=20%, +++ >=50, ++++ >=75%)
From the text: Candidate peptides for T cell based therapies according to the present invention were further tested for their MHC binding capacity (affinity). The individual peptide-MHC complexes were produced by UV-ligand exchange, where a UV-sensitive peptide is cleaved upon UV-irradiation, and exchanged with the peptide of interest as analyzed. Only peptide candidates that can effectively bind and stabilize the peptide-receptive MHC molecules prevent dissociation of the MHC complexes. To determine the yield of the exchange reaction, an ELISA was performed based on the detection of the light chain (β2m) of stabilized MHC complexes. The assay was performed as generally described in Rodenko et al. (Rodenko et al., 2006).
96 well MAXISorp plates (NUNC) were coated over night with 2 ug/ml streptavidin in PBS at room temperature, washed 4× and blocked for 1h at 37° C. in 2% BSA containing blocking buffer. Refolded HLA-A*02:01/MLA-001 monomers served as standards, covering the range of 15-500 ng/ml. Peptide-MHC monomers of the UV-exchange reaction were diluted 100 fold in blocking buffer. Samples were incubated for 1 h at 37° C., washed four times, incubated with 2 ug/ml HRP conjugated anti-β2m for 1h at 37° C., washed again and detected with TMB solution that is stopped with […]. Absorption was measured at 450 nm. Candidate peptides that show a high exchange yield (preferably higher than 50%, most preferred higher than 75%) are generally preferred for a generation and production of antibodies or fragments thereof, and/or T cell receptors or fragments thereof, as they show sufficient avidity to the MHC molecules and prevent dissociation of the MHC complexes.

Binder | peptide exchange yield [%]
VLLDTILQL (source gene HSF2BP) [VLLDTILQL (SEQ ID NO: 38)] | 50 to 75
YIQEVVQYI (source gene PLCB1) [YIQEVVQYI (SEQ ID NO: 23)] | 50 to 75
QLFYTKIFL (source gene PLOD1) [QLFYTKIFL (SEQ ID NO: 30)] | 20 to 50
ILMDFSNSM (source gene ITGB4) [ILMDFSNSM (SEQ ID NO: 56)] | 50 to 75
SLQKEILYL (source gene ATG2B) [SLQKEILYL (SEQ ID NO: 57)] | 20 to 50
ALADLDELLIRA (source gene HSPG2) [ALADLDELLIRA (SEQ ID NO: 105)] | 50 to 75
LLDLHSYLL (source gene MARCH6) [LLDLHSYLL (SEQ ID NO: 110)] | 20 to 50
FTLGTTVFL (source gene NDUFC1) [FTLGTTVFL (SEQ ID NO: 24)] | 50 to 75
FIADVVEKI (source genes HTRA1, HTRA3) [FIADVVEKI (SEQ ID NO: 33)] | 20 to 50
YLYPNLTRL (source gene SLC6A13) [YLYPNLTRL (SEQ ID NO: 5)] | 20 to 50
KLLQNNYGL (source gene RGS5) [KLLQNNYGL (SEQ ID NO: 10)] | 20 to 50
TLAEVRAVQEI (source gene SMYD2) [TLAEVRAVQEI (SEQ ID NO: 47)] | 50 to 75
LLVPAHLVAA (source gene ESM1) [LLVPAHLVAA (SEQ ID NO: 25)] | 20 to 50
FLVDFEQSHL (source gene CYP2J2) [FLVDFEQSHL (SEQ ID NO: 58)] | ≥ 75
YVLDLAAKV (source gene ACLY) [YVLDLAAKV (SEQ ID NO: 18)] | 50 to 75
VVASNIMEV (source gene PFKFB3) [VVASNIMEV (SEQ ID NO: 48)] | 20 to 50
SLFGKKYIL (source gene FHL2) [SLFGKKYIL (SEQ ID NO: 36)] | 20 to 50
LLDPGSLQL (source gene SYNDIG1L) [LLDPGSLQL (SEQ ID NO: 19)] | 20 to 50
ALLGIPLTL (source genes KCNK3, KCNK15) [ALLGIPLTL (SEQ ID NO: 45)] | 50 to 75
SLFDWNVKL (source gene UBE2QL1) [SLFDWNVKL (SEQ ID NO: 113)] | 50 to 75
ALFSFVTAL (source gene TTYH3) [ALFSFVTAL (SEQ ID NO: 44)] | 50 to 75
ALLTETIFL (source gene LRRK2) [ALLTETIFL (SEQ ID NO: 14)] | 20 to 50

Binder | peptide exchange yield [%]
ALDPSGNQLI (source gene SEMA5B) [ALDPSGNQLI (SEQ ID NO: 12)] | 20 to 50
FLLEIRQTL (source gene SNX13) [FLLEIRQTL (SEQ ID NO: 53)] | 20 to 50
KIMAQILTV (source gene LRRK2) [KIMAQILTV (SEQ ID NO: 13)] | 50 to 75
B1 | 50 to 75
ILWKDIEYV (source gene SYT9) [ILWKDIEYV (SEQ ID NO: 60)] | 50 to 75
SILDAVQRV (source gene PXDNL) [SILDAVQRV (SEQ ID NO: 52)] | 20 to 50
VLHSLQTQL (source gene ANGPTL4) [VLHSLQTQL (SEQ ID NO: 35)] | 20 to 50
TLLETEMLL (source gene CEP44) [TLLETEMLL (SEQ ID NO: 111)] | 20 to 50
SLSDLLVSL (source gene OPN3) [SLSDLLVSL (SEQ ID NO: 27)] | 50 to 75
VLAPVILML (source gene ABCC3) [VLAPVILML (SEQ ID NO: 37)] | 20 to 50
KLQDGLLHI (source gene TIMP1) [KLQDGLLHI (SEQ ID NO: 103)] | 20 to 50
YIQEHLLQI (source gene IVNS1ABP) [YIQEHLLQI (SEQ ID NO: 40)] | 50 to 75
FIADLVVGL (source genes ENO1, ENO2, ENO3) [FIADLVVGL (SEQ ID NO: 28)] | 20 to 50
ILIKHLVKV (source gene ARHGAP42) [ILIKHLVKV (SEQ ID NO: 15)] | 20 to 50
AVANTTFTV (source gene HSD3B7) [AVANTTFTV (SEQ ID NO: 20)] | 20 to 50
SLSDHIVLL (source gene ITGA3) [SLSDHIVLL (SEQ ID NO: 50)] | 20 to 50
YLALILPVL (source gene SLC16A4) [YLALILPVL (SEQ ID NO: 55)] | 20 to 50
VLMDLKALL (source gene DDX41) [VLMDLKALL (SEQ ID NO: 106)] | 50 to 75
NLWPMILTL (source gene ITGA3) [NLWPMILTL (SEQ ID NO: 51)] | 50 to 75
YLKDELDEL (source gene SOGA2) [YLKDELDEL (SEQ ID NO: 43)] | 50 to 75
FLSQDIITV (source gene REN) [FLSQDIITV (SEQ ID NO: 4)] | 50 to 75
ILLDLEQAL (source gene CUL7) [ILLDLEQAL (SEQ ID NO: 29)] | 50 to 75

Binder | peptide exchange yield [%]
YLLNLNHLGL (source gene TRAM1) [YLLNLNHLGL (SEQ ID NO: 39)] | 50 to 75
ILWREVVTL (source gene HSF4) [ILWREVVTL (SEQ ID NO: 2)] | 50 to 75
RLLGEVQAL (source gene HSF4) [RLLGEVQAL (SEQ ID NO: 3)] | 20 to 50
ILAQQVHAL (source gene KIF12) [ILAQQVHAL (SEQ ID NO: 17)] | 50 to 75
LLFDHLEPIEL (source gene RASGRP3) [LLFDHLEPIEL (SEQ ID NO: 112)] | 50 to 75
YLWSRVEKL (source gene LRRK2) [YLWSRVEKL (SEQ ID NO: 109)] | ≥ 75
VLIVEVPGV (source gene ADCY5) [VLIVEVPGV (SEQ ID NO: 49)] | 50 to 75
GLLKTLQKL (source gene CLIC4) [GLLKTLQKL (SEQ ID NO: 41)] | 20 to 50
FMPEELPQL (source gene THNSL2) [FMPEELPQL (SEQ ID NO: 16)] | 20 to 50
RLIQGDQILSV (source gene INADL) [RLIQGDQILSV (SEQ ID NO: 21)] | 20 to 50
ALFEGVVRQI (source gene RRAD) [ALFEGVVRQI (SEQ ID NO: 104)] | 50 to 75
FLSPPLPSV (source genes BCKDHA, TMEM91) [FLSPPLPSV (SEQ ID NO: 22)] | 50 to 75
VILDTGTIQL (source gene NAT8) [VILDTGTIQL (SEQ ID NO: 42)] | 20 to 50
VLMDLKALLL (source gene DDX41) [VLMDLKALLL (SEQ ID NO: 107)] | 50 to 75
ALVAKGLVQA (source gene AKR1A1) [ALVAKGLVQA (SEQ ID NO: 54)] | 20 to 50
FIQTEAPKEV (source gene RGS5) [FIQTEAPKEV (SEQ ID NO: 11)] | 20 to 50
ELNNQNFYL (source gene CIT) [ELNNQNFYL (SEQ ID NO: 34)] | 50 to 75
GLSEVLVQI (source gene MICAL3) [GLSEVLVQI (SEQ ID NO: 46)] | 50 to 75
VLISVLQAI (source gene CYFIP2) [VLISVLQAI (SEQ ID NO: 108)] | 20 to 50
VLFGLDPAVIKV (source gene HSPA12A) [VLFGLDPAVIKV (SEQ ID NO: 31)] | 50 to 75
SLKNNVVSV (source gene TGFBI) [SLKNNVVSV (SEQ ID NO: 59)] | 50 to 75
ALAVNISAA (source gene CCT6A) [ALAVNISAA (SEQ ID NO: 114)] | 50 to 75
